Reference: the Immune Epitope Database (IEDB)

Experiments:
[1] = target: HLA-A*32:01; experiment: IEDB peptide-MHC binding, purified MHC/competitive/radioactivity; filed as Kd, often an IC50 or EC50 that approximates it; ≥ and ≤ were set here for values at or beyond the usual limits of such assays
[2] = target: HLA-B*40:01; experiment: as above; details: source organism: Dengue virus 2 Jamaica/1409/1983
[3] = target: HLA-B*44:02; experiment: as above; details: source organism: Dengue virus 2 Jamaica/1409/1983
[4] = target: HLA-B*44:03; experiment: as above; details: source organism: Dengue virus 2 Jamaica/1409/1983
[5] = target: HLA-A*30:01; experiment: as above
[6] = target: HLA-A*02:01; experiment: IEDB peptide-MHC binding, purified MHC/competitive/fluorescence; filed as Kd, often an IC50 or EC50 that approximates it; ≥ and ≤ were set here for values at or beyond the usual limits of such assays
[7] = target: HLA-A*30:02; experiment: IEDB peptide-MHC binding, purified MHC/competitive/radioactivity; filed as Kd, often an IC50 or EC50 that approximates it; ≥ and ≤ were set here for values at or beyond the usual limits of such assays
[8] = target: HLA-A*26:01; experiment: as above
[9] = target: HLA-A*11:01; experiment: as above; details: source organism: SARS coronavirus Tor2
[10] = target: HLA-A*23:01; experiment: as above; details: source organism: SARS coronavirus Tor2
[11] = target: HLA-A*03:01; experiment: as above
[12] = target: HLA-A*33:01; experiment: as above; details: source organism: SARS coronavirus Tor2
[13] = target: HLA-A*31:01; experiment: as above; details: source organism: SARS coronavirus Tor2
[14] = target: HLA-A*29:02; experiment: as above
[15] = target: HLA-A*24:02; experiment: as above; details: source organism: SARS coronavirus Tor2
[16] = target: HLA-A*68:01; experiment: as above; details: source organism: SARS coronavirus Tor2
[17] = target: HLA-A*01:01; experiment: as above
[18] = target: HLA-B*07:02; experiment: as above; details: source organism: Dengue virus 1 Brazil/97-11/1997
[19] = target: HLA-A*26:01; experiment: IEDB peptide-MHC binding, purified MHC/direct/fluorescence; filed as Kd, often an IC50 or EC50 that approximates it; ≥ and ≤ were set here for values at or beyond the usual limits of such assays; details: source organism: Mycobacterium tuberculosis
[20] = target: HLA-A*01:01; experiment: as above; details: source organism: Mycobacterium tuberculosis variant bovis BCG str. Pasteur 1173P2
[21] = target: HLA-B*51:01; experiment: IEDB peptide-MHC binding, purified MHC/competitive/radioactivity; filed as Kd, often an IC50 or EC50 that approximates it; ≥ and ≤ were set here for values at or beyond the usual limits of such assays
[22] = target: HLA-A*68:02; experiment: as above
[23] = target: HLA-B*35:01; experiment: as above
[24] = target: HLA-B*53:01; experiment: as above; details: source organism: Dengue virus 1 Brazil/97-11/1997
[25] = source organism: Dengue virus 2 Jamaica/1409/1983
[26] = source organism: SARS coronavirus Tor2
[27] = source organism: Dengue virus 3 Martinique/1243/1999
[28] = source organism: Mammarenavirus guanaritoense
[29] = source organism: Mammarenavirus brazilense
[30] = source organism: Dengue virus 1 Brazil/97-11/1997
[31] = source organism: Dengue virus 4 Philippines/H241/1956
[32] = source organism: Vaccinia virus WR
[33] = source organism: Mammarenavirus lassaense
[34] = source organism: Mammarenavirus juninense

AAAWYLWEVK
Kd [1, 25]: 2060 nM

AEISGSSPIL
Kd [2]: 1.04 nM | Kd [3]: 6.16 nM | Kd [4]: 6.75 nM | Kd [5, 25]: 16100 nM

AIVGGLAEL
Kd ([6]; source organism: Japanese encephalitis virus): 12 nM

ALSSDGDTV
Kd ([6]; source organism: Vaccinia virus Tian Tan): 9.6 nM

AMDEFIQRY
Kd [7, 26]: 1390 nM | Kd [8, 26]: ≥ 84100 nM | Kd [9]: 3230 nM | Kd [10]: ≥ 20100 nM | Kd [11, 26]: 1630 nM | Kd [12]: ≥ 77700 nM | Kd [13]: ≥ 77900 nM | Kd [14, 26]: 896 nM | Kd [15]: 7900 nM | Kd [16]: ≥ 77700 nM | Kd [17, 26]: 64.4 nM

ATFKIQPFL
Kd [5, 27]: 361 nM

AVAANIVLTV
Kd ([6]; source organism: Homo sapiens): 207 nM

AVFQPSTGNY
Kd [1, 28]: ≥ 69900 nM | Kd [7, 28]: 21.5 nM | Kd [8, 28]: 776 nM | Kd [14, 28]: 819 nM | Kd [5, 28]: 12400 nM | Kd [17, 28]: ≥ 27600 nM

CTREEFTRK
Kd [5, 25]: 64.4 nM

DPRRCLKPV
Kd [18]: 225 nM

DTRTQTWMSA
Kd [1, 27]: 5740 nM

DVAAMSGYY
Kd [19]: 3 nM | Kd [20]: 318 nM

EMFKTKGRY
Kd [1, 29]: ≥ 77800 nM | Kd [7, 29]: 131 nM | Kd [8, 29]: 650 nM | Kd [14, 29]: 11500 nM | Kd [5, 29]: 8950 nM | Kd [17, 29]: ≥ 32000 nM

FAAGLLLRKL
Kd [21, 25]: 11600 nM

FLEQQNKIL
Kd ([22]; source organism: Homo sapiens): ≥ 136000 nM

FTILALFLAH
Kd [23, 27]: ≥ 24900 nM | Kd [8, 27]: ≥ 20900 nM

GKTRRYLPAI
Kd [5, 30]: 670 nM

GPVLTLWEGN
Kd [1, 31]: 1550 nM

HPGFTVIAL
Kd [23, 30]: 1.54 nM | Kd [24]: 29.4 nM | Kd [18]: 3.14 nM

IIFFIVLIL
Kd [1, 32]: 12.2 nM

ILPVIFLSI
Kd [1, 32]: 4.49 nM

IPNHGVTAT
Kd [23, 31]: 2280 nM

ISRFANLIK
Kd [5, 32]: 13.4 nM

ITLFLILCY
Kd [1, 32]: 1800 nM

ITVYFRRTI
Kd [1, 32]: 25.9 nM

KLGFEEIKGL
Kd ([6]; source organism: Vaccinia virus Copenhagen): 30.6 nM

KLYTIVSTL
Kd [1, 32]: 7.12 nM

KQNMLHVII
Kd [1, 32]: 2.12 nM

KSRLNALGK
Kd [11, 25]: 11.3 nM | Kd [5, 25]: 3.44 nM

KTGECSKCY
Kd [1, 33]: 6790 nM | Kd [7, 33]: 834 nM | Kd [8, 33]: ≥ 77900 nM | Kd [14, 33]: 10200 nM | Kd [5, 33]: 18600 nM | Kd [17, 33]: 12800 nM

KVFVPAPFG
Kd [5, 32]: 6.64 nM

KVLRPTPRG
Kd ([5]; source organism: Dengue virus 4 Dominica/814669/1981): 300 nM

LAGLFIDAGY
Kd [1, 34]: 14900 nM | Kd [7, 34]: 171 nM | Kd [8, 34]: ≥ 43600 nM | Kd [14, 34]: 54.3 nM | Kd [5, 34]: 12500 nM | Kd [17, 34]: 1640 nM

LPDTIETLM
Kd [23, 30]: 818 nM | Kd [21, 30]: 19000 nM | Kd [24]: 428 nM

LPPEKCDTL
Kd [21, 27]: 7730 nM

LTNEIYASI
Kd [1, 32]: 12.9 nM

LTYVVIAILT
Kd [22, 25]: 173 nM

MADVPLQWI
Kd ([21]; source organism: Dengue virus 3 Singapore/8120/1995): 2270 nM
